Biological target: T1, human matriptase-2 ECD protein his tag (human, UniProt Q8IU80 78-811)
T1 construct: also called human MTP-2 ECD; huMTP-2
T1 sequence: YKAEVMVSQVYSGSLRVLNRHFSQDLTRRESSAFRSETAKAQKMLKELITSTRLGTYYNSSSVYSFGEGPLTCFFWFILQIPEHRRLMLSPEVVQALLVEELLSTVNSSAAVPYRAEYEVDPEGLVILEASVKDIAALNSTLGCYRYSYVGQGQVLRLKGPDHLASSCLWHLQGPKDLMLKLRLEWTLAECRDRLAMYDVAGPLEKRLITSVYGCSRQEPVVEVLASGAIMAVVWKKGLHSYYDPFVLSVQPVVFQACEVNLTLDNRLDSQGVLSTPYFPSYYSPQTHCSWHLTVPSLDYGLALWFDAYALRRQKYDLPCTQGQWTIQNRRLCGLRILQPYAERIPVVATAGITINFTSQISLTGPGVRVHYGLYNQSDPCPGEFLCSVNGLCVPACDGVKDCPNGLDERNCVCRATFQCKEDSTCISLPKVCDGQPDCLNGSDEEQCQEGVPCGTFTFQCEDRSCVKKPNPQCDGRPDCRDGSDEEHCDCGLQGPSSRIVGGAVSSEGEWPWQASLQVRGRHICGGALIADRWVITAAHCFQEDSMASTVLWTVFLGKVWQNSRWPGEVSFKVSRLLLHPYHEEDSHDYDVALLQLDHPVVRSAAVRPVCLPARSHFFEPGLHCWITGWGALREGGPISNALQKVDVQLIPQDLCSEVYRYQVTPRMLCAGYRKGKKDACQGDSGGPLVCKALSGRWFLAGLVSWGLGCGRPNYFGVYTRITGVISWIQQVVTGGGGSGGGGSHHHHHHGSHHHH
Assay: SPR, his-tagged MTP-2 ECD protein (Table W); true KD could not be measured accurately, very slow off-rate
Procedure: Off-rate screening was performed by surface plasmon resonance (SPR), using a Biacore 8K system (GE Healthcare). Anti-human Fc mix (˜1000 RU) were immobilised in both active and reference channels in HBS-P+ buffer (GE BR100671) pH 7.4. Anti-MTP-2 hulgG4PE antibodies were then captured for 60 sec at 10 μl/min at 1 μg/ml concentration (approximatively 35 and 50 RU were captured) only on the active channel. MTP-2 ECD protein analytes were then injected (at 100, 25, 6.25, 1.56 and 0 nM concentrations) for 120 sec (association time) at 30 μl/min and dissociation monitored for 600 sec. Multiple cycle kinetics mode was used with all 8 channels being used. Reference and background were subtracted from the sensorgrams for each antibody and data was fitted using a 1:1 interaction model in the Biacore evaluation software. Rmax, ka, kd globally fitted, RI=0.
NORI-011, NORI-008, NORI-003 and NORI-006 were all found to have cross-reactive binding to human, mouse, cyno and rat MTP-2 ECD proteins. […] The true KD value for NORI-008 could not be measured accurately for human or mouse MTP-2 due to a very slow off-rate.

Kd: 0.0169 pM
B1: NORI-008 (antibody, human IgG4 S228P, kappa, V domains shown)
VH: QVQLQESGPGLVKPSETLSLTCSVSGGSVSSGRYYWTWIRQPPGKGLEWIGYISNSGNTNYNPSLKSRVTISLDTSKKQFSLSLSAVTAADTAVYYCARGFIYDYWFDPWGQGSLVTVSS
VL: DSQMTQSPSSLSASVGDRVTITCQASQDIDNYLNWYQQRPGKAPKLLIYDASKLETGVPSRFSGSGSGTDFTFTISSLQPEDFATYYCQQYGNLPITFGQGTRLDIKR
notes: human IgG4PE, kappa, in the in vitro assays; a mouse IgG1 format was used in one in vivo study only; also called NORI-008 hulgG4PE; NORI-008 IgG

Reference: patent US20230025129A1 (KYMAB, published 2023)
